# Assay results from IntAct's records for PubMed 16061658.
# B1: WW domain-containing oxidoreductase (Homo sapiens), Q9NZC7 (parent)
# chain: MAALRYAGLDDTDSEDELPPGWEERTTKDGWVYYANHTEEKTQWEHPKTGKRKRVAGDLPYGWEQETDENGQVFFVDHINKRTTYLDPRLAFTVDDNPTKPTTRQRYDGSTTAMEILQGRDFTGKVVVVTGANSGIGFETAKSFALHGAHVILACRNMARASEAVSRILEEWHKAKVEAMTLDLALLRSVQHFAEAFKAKNVPLHVLVCNAATFALPWSLTKDGLETTFQVNHLGHFYLVQLLQDVLCRSAPARVIVVSSESHRFTDINDSLGKLDFSRLSPTKNDYWAMLAYNRSKLCNILFSNELHRRLSPRGVTSNAVHPGNMMYSNIHRSWWVYTLLFTLARPFTKSMQQGAATTVYCAAVPELEGLGGMYFNNCCRCMPSPEAQSEETARTLWALSERLIQERLGSQSG
# B2: Receptor tyrosine-protein kinase erbB-4 (Mus musculus), Q61527 (parent)
# chain: MKLATGLWVWGSLLMAAGTVQPSASQSVCAGTENKLSSLSDLEQQYRALRKYYENCEVVMGNLEITSIEHNRDLSFLRSIREVTGYVLVALNQFRYLPLENLRIIRGTKLYEDRYALAIFLNYRKDGNFGLQELGLKNLTEILNGGVYVDQNKFLCYADTIHWQDIVRNPWPSNMTLVSTNGSSGCGRCHKSCTGRCWGPTENHCQTLTRTVCAEQCDGRCYGPYVSDCCHRECAGGCSGPKDTDCFACMNFNDSGACVTQCPQTFVYNPTTFQLEHNFNAKYTYGAFCVKKCPHNFVVDSSSCVRACPSSKMEVEENGIKMCKPCTDICPKACDGIGTGSLMSAQTVDSSNIDKFINCTKINGNLIFLVTGIHGDPYNAIDAIDPEKLNVFRTVREITGFLNIQSWPPNMTDFSVFSNLVTIGGRVLYSGLSLLILKQQGITSLQFQSLKEISAGNIYITDNSNLCYYHTINWTTLFSTINQRIVIRDNRRAENCTAEGMVCNHLCSNDGCWGPGPDQCLSCRRFSRGKICIESCNLYDGEFREFENGSICVECDSQCEKMEDGLLTCHGPGPDNCTKCSHFKDGPNCVEKCPDGLQGANSFIFKYADQDRECHPCHPNCTQGCNGPTSHDCIYYPWTGHSTLPQHARTPLIAAGVIGGLFILVIMALTFAVYVRRKSIKKKRALRRFLETELVEPLTPSGTAPNQAQLRILKETELKRVKVLGSGAFGTVYKGIWVPEGETVKIPVAIKILNETTGPKANVEFMDEALIMASMDHPHLVRLLGVCLSPTIQLVTQLMPHGCLLDYVHEHKDNIGSQLLLNWCVQIAKGMMYLEERRLVHRDLAARNVLVKSPNHVKITDFGLARLLEGDEKEYNADGGKMPIKWMALECIHYRKFTHQSDVWSYGVTIWELMTFGGKPYDGIPTREIPDLLEKGERLPQPPICTIDVYMVMVKCWMIDADSRPKFKELAAEFSRMARDPQRYLVIQGDDRMKLPSPNDSKFFQNLLDEEDLEDMMDAEEYLVPQAFNIPPPIYTSRTRIDSNRSEIGHSPPPAYTPMSGNQFVYQDGGFATQQGMPMPYRATTSTIPEAPVAQGATAEMFDDSCCNGTLRKPVAPHVQEDSSTQRYSADPTVFAPERNPRGELDEEGYMTPMHDKPKQEYLNPVEENPFVSRRKNGDLQALDNPEYHSASSGPPKAEDEYVNEPLYLNTFANALGSAEYMKNSVLSVPEKAKKAFDNPDYWNHSLPPRSTLQHPDYLQEYSTKYFYKQNGRIRPIVAENPEYLSEFSLKPGTMLPPPPYRHRNTVV
# partner: B1 chain
# Variants of: B1
# Settings: with erbb4_mouse Erbb4, Q61527
row,effect of a mutation on the interaction,Variant
1,disrupting interaction,MAALRYAGLDDTDSEDELPPGWEERTTKDGWVRYANHTEEKTQWEHPKTGKRKRVAGDLPYGWEQETDENGQVFFVDHINKRTTYLDPRLAFTVDDNPTKPTTRQRYDGSTTAMEILQGRDFTGKVVVVTGANSGIGFETAKSFALHGAHVILACRNMARASEAVSRILEEWHKAKVEAMTLDLALLRSVQHFAEAFKAKNVPLHVLVCNAATFALPWSLTKDGLETTFQVNHLGHFYLVQLLQDVLCRSAPARVIVVSSESHRFTDINDSLGKLDFSRLSPTKNDYWAMLAYNRSKLCNILFSNELHRRLSPRGVTSNAVHPGNMMYSNIHRSWWVYTLLFTLARPFTKSMQQGAATTVYCAAVPELEGLGGMYFNNCCRCMPSPEAQSEETARTLWALSERLIQERLGSQSG [Y33R]

# Variants of: B2
# Settings: with wwox_human WWOX, Q9NZC7
row,effect of a mutation on the interaction,Variant
1,disrupting interaction,Y1035A;Y1301A
